Assay: soluble on expression in E. coli; label from the status in PepcDB or PDB records

Sequence	soluble on expression in E. coli
MGSDKIHHHHHHMSAEPIIQVENLSKMYRLGLKNEIHDSIAEAAVSWLKTPVKNYRNLKSLNTFGVPVDEDDPGVLWALRDVSFEVAEGEVLGIIGRNGAGKSTLLKVLSRITEPTRGRVIINGRVASLLEVGTGFHPDLTGRENVFMNGSILGMRKGEIAAKFDEIVDFAGLDRFIDTPIKRYSSGMVMRLAFSVAAHLEPEILIIDEVLAVGDAAFQKKCLDKMHKVASGGRTVLFVSHQLNSVSALCGRVMHMDSGRIIKNGDTRQVIDHYLTSAGFGVTTALHDRKDRCGAGHVRFVNSWIEDMQGNRLASAVSGEPVRIALEYQSHAEESFSDVKVYLRLYSMLNKPAGLFSNVYTEERIDISAGENGVLYCTVPRMMLNGGRYFFHLKLEAQGRQLDHIENAGYMEVEAGNVYANGKMPNDQWVYLHDYGWSGEPLHKG	not soluble
MGSDKIHHHHHHMSAIPQAARKRGRPVKGESATLRDELILKSAKLFRTQGYERTTVRDIAAAAGVQAGSWFYYFKTKQDILVAVMEQGMSNALARIEALDVEHLPARDAFRALVHTHLHTLVSPDHDFIPVLLYEWKSLDEAMQAKVLKLKDRYEAVWDGVIERLQAAGEWPAPTPIDRLLMFGALNWVAQWYKPDGALGLDALAEHAVRFLLRTAETPAPAPAGTAKRRRGVKAS	not soluble
MGSDKIHHHHHHMSAPDSAPGTERGHERTHFAVVGDSQDPAQATAPRAPAESITLIGIGTDGFEGLGLKAQQALQRASVVIGSWRQLNLVPDAIKAERRPWPGNTKHPDLDALFKEFLGRHVAVLASGDPLFYGVGTAMVHVLGMDRLTVIPGPSSASLACARLGWTVNRTRVVYLGQEPIETLIPIIESGAQFLVLGKDEFSTAQVATLLNELGLGETPLTVLSDLGSTDEEITQGTASHPPAAVSVLNVIAVGARTAMPKPHFEGDVSNEDLRALTVAALEPTQGQMLWTFGDIGAALACDWLRAAGNKAHAISFASMVEQSQRNARKLGVSTLSVKETLSPKTLKDIRYVQGPESASPHAIFMNKGLGIDLVPETAWMMLRPGGKLIAQASTEDNIAKLHTLQEQHGGIIKHIRIDDTDVHQWRVTKPVTPEAVN	not soluble
MGSDKIHHHHHHMSAPRSICLLRLSAIGDTCNAAAVVNAIRQHYPEAEITWVIGKAEAALMAGMDGVNFVVFDKKRGMAAYRNLRRQLQGKRFDALLLMQVALRANLASLCISAKRRIGYDKAKSKELHSLFINERIEPTDKVHVLDNFRQFQKSLGIPLEEPDWNIPVNAEDRGWAKAQLDPNTSKHLIITAAASNTERNWLPDRYAAVADYAASQGFSVYLCGGPADYEKQLAANIQAHAKHSLHNLVGQSSLKQLFALIGEASLVLAPDTGPAHMAVAAGTPVIGLYAHSNPKRTGPYLWQNYVVDAYTPALKQTRGETPEQSRWGQRLKGAELMENITTEQVIDMLDRCIQEQNL	not soluble
MGSDKIHHHHHHMSASSQSPKGDGLLQTISVKILKRVGKEEVAYVYLGETSRGNLVEFVESIQPPVPREKKWVLIVSTLAGCPVGCLMCDAGGFYRGKLSADEIFEQIDFLVKSRYPNGRIPSEKFKIQFARMGEPALNEAVLDVLKELPARYEAPGLMPSISTVAPCGTDSFFEDLLKIKEKHYRGKFQLQFSIHSTDEKERDQIIPVKKWSLEKISEFGKRFVKENDRKITLNFAVAQEYSLDPKVIIRVFDPEKFLVKITPVNPTYRSKENNLNSDVDVERKELLKHRNFIEELKKAGFEVILSIGELEENKIGSNCGQYVQRHLMSERKIVDGYQYV	not soluble
MGSDKIHHHHHHMSDAKLQSVLSSLSQVARQLDALPSDTPAPDSSWVKLNTNENPFPLPEIIMQSAIAALERQYLYPEDDNISLREAAANAYSVSMDQVIAGNGSSELLGLVYRAFLTPGDSVAMMSPGFSFNRKLATLQGAQFVEIEFSKDHSLPMEQLLFGPAKDAKFILLANPNNPTGTFVPVADIERLVAKSDRLIVLDEAYVDFAPENGLRLINRYSNLLVLRTFSKSYAAAGVRVGFGFGHPEIIGRLRNIQNVFNMNVIGQAVGISVLAHRAAYADNHRHIRHERRRVTLALSQLGFSVIPSHANFLLARVPTAQDGSWWQSAFARQKILVAVFPDKGLENYIRVSIGTKEQMDAFLRAASRISRILNMSTPPR	not soluble
MGSDKIHHHHHHMSELKLPKDDRSIEVYRLSGTPVAVEKRSAADFNRVAFAAAHVVADPFADNDPWLTPAIDWEATLRFRHRLWDLGLGVAEAMDTAQRGMGLAWPQAQELISRSLKEAASRKDALIACGVGTDHLDSGGYDLNQIIDSYLEQLDFVQGEGGRVILMASRALAAAARSPDDYLKAYARVLSRAEQKVVIHWLGEMFDPALKGYWGSGDHMAAMETCLAMIEENAEKIDGIKISLLSKDKEIVMRRRLPAGVRMYTGDDFNYAELIAGDEQGHSDALLGIFDAIAPAASKALASLKRGADNEFFDILEPTVALSRHIFKAPTRFYKTGVVFLAYLNGLQDHFTMVGGQESTRSTQHFTELFRLADKANVLAEPDLATHRMKAFLAVRGIG	not soluble
MGSDKIHHHHHHMSENHWENQPGTPPDVTPECGQESDGERLYLWRQIVHWRSGTGGSQCNPLIELDKQNHWSVMNGGATGASGWLLVPTDRKKGIECRDIWTHRDPNYWNAAWGYVRSPYGSPTTTGLGINSKDKRTQDQLHIHIATFQSDAKTYLDARSPSEIATTPGDWAKKLLTVPSDSKPGQVYRVLHVKDLATDNLFNLLQSNVVSSDQMGNQTMIVIPAKSGGFYVLNSDISLSQGAAFGTGTCNHLLKCS	not soluble
MGSDKIHHHHHHMSEQNWTDTGRFDNKAAEWDANAIRAALADAVARAIIAHMPVGKPANALEFGCGTGLVTTRIAPHCLQLTAVDSSREMLRMLGEKIAASAIANVTPLHLDFSRPEEAAGLDRDYDFVYSSMTLHHIPDTASFLRELIGHMSPGGALAIADLDAEDGLFHNDATEKVHHGFDRTELQALLESAGFAGVSFMTAHIIEKKNREGNLKNYPVFLVTAVKPKA	not soluble
MGSDKIHHHHHHMSETELRKRQAQFTRELHGDDIGKKTGLSALMSKNNSAQKEAVQKYLRNWDGRTDKDAEERRLEDYNEATHSYYNVVTDFYEYGWGSSFHFSRFYKGESFAASIARHEHYLAYKAGIQRGDLVLDVGCGVGGPAREIARFTGCNVIGLNNNDYQIAKAKYYAKKYNLSDQMDFVKGDFMKMDFEENTFDKVYAIEATCHAPKLEGVYSEIYKVLKPGGTFAVYEWVMTDKYDENNPEHRKIAYEIELGDGIPKMFHVDVARKALKNCGFEVLVSEDLADNDDEIPWYYPLTGEWKYVQNLANLATFFRTSYLGRQFTTAMVTVMEKLGLAPEGSKEVTAALENAAVGLVAGGKSKLFTPMMLFVARKPENAETPSQTSQEATQ	not soluble
MGSDKIHHHHHHMSFISKGAKIGENLKIGRNVVIEDGVVIGNNVMIGHNVVIRDGTIVGDNCVIFDGTVLGKLPFKSAISAVTEEKEFPPLKIGNGVTIGANCVIYRGSVLEDFVFVGDLVVIREDVKIGPYTVIGKGVTVENRTTIGRYVKIETNAYITALSTIEDYCFIAPEVTFTNDNFLGRTEERKKFFKGPTLKKGARIGANATILPGVVVGEDALVAAGSVVTRDVPDRKIVMGIPARVVRDVPEEQLLDNQSYYKEESS	not soluble
MGSDKIHHHHHHMSFTSLPLTEINHKLPARNIIESQWITLQLTLFAQEQQAKRVSHAIVSSAYRKAEKIIRDAYRYQREQKVEQQQELACLRKNTLEKMEVEWLEQHVKHLQDDENQFRSLVDHAAHHIKNSIEQVLLAWFDQQSVDSVMCHRLARQATAMAEEGALYLRIHPEKEALMRETFGKRFTLIIEPGFSPDQAELSSTRYAVEFSLSRHFNALLKWLRNGEDKRGSDEY	not soluble
MGSDKIHHHHHHMSHVSLKDVQVLAPNFKRRLSGVTSTIVQLIPVQNRLGQKVGTIGPGLPPHLPHVRFRDLWRLWQNGPSGGPRIWHARRNLEMLPGIFMRDVLRMKVKLLFTSAAQRRHSAYTRFLISKMDAVVATSTRSGSFLEVPHRVVMHGVDTELFHPATGPEDTIAATGLPGHYLLGCFGRVRHQKGTDLFVRAMIELLPHYPQWTAVVSGRVTAEHKAFGDTLKADVAAAGLTDRIIFQGEVDDIKPWYRRLTLYVAPSRNEGFGLTPLEAMASETAVVASNAGAYEEMIVTGETGWVVGAGDYASLRDAIKTYLADPALAKAHASAGLAHVRSTFPLEKEATCLGEVYEALQRG	not soluble
MGSDKIHHHHHHMSIFFLNNGIMNILQEYSVLNAKVIIYEENGIGYYKVNEPNLDQNEIEILNSILEYIYSTPSVPNIEETVVKILKNKGISDQGIIEKIIYYLRKRIGYDELTVPLADPYVEEIECKGFSYPVTVVHRIVTRFPRLYTNIILEQEDHVLKVIEKLANKADKPVSIAKPYLEFSLPEGHRVAATVSREVSLPGSTFDIRKFPLKPISPISLIKNESISSLMLAYIWFLLDYKPFFLIIGSTGSGKTTLLNSILSMINPFFKVITIEDTPEINIIHDNWIRFFARQSISSQFEVSLMDLAKLSLRYRPDYLVIGEIRGKEIEALVHASASGHGSLATFHAGNPHEALTRLLSLLNKDVAKLFLQNLWGIIVLGTLRDRNGNIRRIIRSIYEIVYTRGKLRFRPVLRWSFSSNTFMPNNIDDLIKRSYRISYISKTYEIPISEITKEISNRVKTLNNFVSNNILDLEEFSVYLKKISQGDKVETKAI	not soluble
MGSDKIHHHHHHMSIICLALAGCAVEKTEVRTPTFDEQLRPAPPSYANGSIWQASTTGLAVDHKARSRGDIITVLIVEQASASKEATTDTERKAEVSASVPYLMGLEKSSTLFSKLTNANPNNLLGASTNSKYEGSGATTRKENLLATMTAKITDVLPNGNFLIEGRRNVKVNNEDQILVLQGTIRPRDVSPDNTISSTMIADARISYTGNGVISDRQRPGWLMNILDYIWPF	not soluble
MGSDKIHHHHHHMSILEVRGIEKTYSGKRILKAVSFDLESGKLTVLGGLNGIGKSTLIKMMSGDIRPDSGEIVFDGHHVELRSIVEARRIGLSAVYQEYMLVPDLTVAENIFLGSGKFTISRKKMNSEASRLLSKFGLSFDPSSKVSSLSSDEQALLEFAAAVFSEPKVLMIDDLFSVLQTESRKRLLQMIEVIKNKGTAVLVVTTDPDLMLMADHLLFMDESGVEYLPCPIERGAILERMGASSDFSILPAEGELLIEISNLAGSGQDLSLKRGEVLNIFCESGELVRAFTRAMIRQDPFTDNSVPLFREAKSFFDRFSSRSSSTPAEKYFCSNLKNTGLVSQVMLKKSGSFKSSKSLKKSFILNKESVVSVKSFLAGLERIPGFSGLVSEEDKKLSQLRFDACDLYVFVRPLLGLDPVSVNALSTVLQEIVNRSKAAVIISDEAGSSMLSTRKMRSSE	not soluble
MGSDKIHHHHHHMSINFDLNDLQAFRAVVENGSFRKAAESVRITQPALSRRIEKLESALNVKLFERTTRKVSLTTVGRAFLPQVERILDDLDIALMTIGEVGSTRMGSVTIACVPSAAYYFMPQVISAFREDYPKIRVKVLDASANEVNSAVALGEADFGVSFSGNLAPEVDFELLLQERYVMACRRDHSLAIRESVSWEEMYSHDYIALDITSGNRLVLDQALARSRPHKESICETRHVTTMIGLVEAGLGVAAVPSIAMPMTAHPFLVSVPLVEPEVIRNVGLIKRRGRTLTPAALELEQLVRKMPFRSAGN	not soluble
MGSDKIHHHHHHMSIRIGNAPCSWGVEFADDPRNPTWRSVLKDCAEAGYKGIELGPVGFMPEDPVELGEALAEHDLDLIGGVVFRAYHDPAAWEDVVDATHRTARALRAHGAQHLVLIDSISPRRAPTAGRAAEAEQMDKAEWTAYRNRIAESARIGAEEYGLTVGIHAHAAGFMDFEPELERLLSEVDESLLKICFDTGHHSYAGFDPVAFMKRHVGRISYMHFKDIDPKVKAEVIANRTGFYEACGQGIFCNLGLGDVDFPAVRQVLLEAGFAGWCTVEQDCDPTLDPDPVGDALKNREYLETIGFN	not soluble
